{"source": "ChEMBL document CHEMBL1128006", "about": "“Solid phase synthesis of trypanothione disulfide” (Bioorg Med Chem Lett, 1994)", "proteins": {"B1": {"name": "Trypanothione reductase (Trypanosoma cruzi), P28593 (protein)", "chain": "MMSKIFDLVVIGAGSGGLEAAWNAATLYKKRVAVIDVQMVHGPPFFSALGGTCVNVGCVPKKLMVTGAQYMEHLRESAGFGWEFDRTTLRAEWKKLIAVKDEAVLNINKSYEEMFRDTEGLEFFLGWGSLESKNVVNVRESADPASAVKERLETENILLASGSWPHMPNIPGIEHCISSNEAFYLPEPPRRVLTVGGGFISVEFAGIFNAYKPKDGQVTLCYRGEMILRGFDHTLREELTKQLTANGIQILTKENPAKVELNADGSKSVTFESGKKMDFDLVMMAIGRSPRTKDLQLQNAGVMIKNGGVQVDEYSRTNVSNIYAIGDVTNRVMLTPVAINEAAALVDTVFGTNPRKTDHTRVASAVFSIPPIGTCGLIEEVASKRYEVVAVYLSSFTPLMHNISGSKYKTFVAKIITNHSDGTVLGVHLLGDNAPEIIQGVGICLKLNAKISDFYNTIGVHPTSAEELCSMRTPSYYYVKGEKMEKPSEASL"}}, "compound": "NC(CCC(=O)NC1CSSCC(NC(=O)CCC(N)C(=O)O)C(=O)NCC(=O)NCCCNCCCCNC(=O)CNC1=O)C(=O)O", "test": "Inhibitory activity against recombinant Trypanothione reductase from Trypanosoma cruzi"}
{"protein": "B1", "values": [{"measurement": "Km", "value": 50, "unit": "µM"}]}
